# From the nanobody polyreactivity screen of Harvey et al. (2022)
# Assay: yeast display, Sf9 membrane polyspecificity reagent, FACS + sequencing; frameworks hold sequencing errors
# Method in brief: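 Using colony PCR, genes from sorted yeast display clones were amplified, then sequenced on MiSeq at 2 × 250 and filtered by CDR length. The clones had been stained with 10% biotinylated, detergent-solubilized Sf9 membrane reagent for 1 hour at 4 °C and sorted by FACS into low and high (top ~1%) gates on anti-HA and streptavidin fluorescence. Polyreactivity labels come from the gate of origin.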
row,Sequence,polyreactivity (PSR sort gate)
1,QVQLVESGGGLVQAGGSLRLSCAASGIIFPEYDRGWYRQAPGKERELVAAITKSDGRTYYADSVKGRFTISRDNAKNTVYLQMNSLKPEDTAVYYCNADPRVVAYLGFDSWGQGTQVTVSS,low polyreactivity
2,QVQLVESGGGLVQAGGSLRLSCAASGIIFPFYMGWYRQAPGKEREFVADITYSGGSTYYADSVKGRFTISRDNAKNTVYLQMNSLKPEDTAVYYCAAKFYWRGQSFRSGNFYWGQGTQVTVSS,high polyreactivity
3,QVQLVESGGGLVQAGGSLRLSCAASGIIFPGNAMGWNSQAPGKVRELVAAITSSDGSTYYADSVKGRFTISRDNAKNTVYVQMNSLKPEDTALYYCAADFKGLFSSELDYWGQGTQVTVSS,low polyreactivity
4,QVQLVESGGGLVQAGGSLRLSCAASGIIFPGYAMGWYRQAPGKERELVAAISSGGDTYYADSVKGRFTISRDNAKNTVYLQMNSLKPEDTAVYYCAAEYGLYAPGYYYWGQGTQVTVSS,low polyreactivity
5,QVQLVESGGGLVQAGGSLRLSCAASGIIFPGYAMGWYRQAPGKVRELVAAISSGGDTYYADSVKGLFTISRDNAKNTVYLQMNSLNPEDTAVYYCTAAQLSSDRTSTYGYWGQGTKVTVSS,low polyreactivity
6,QVQLVESGGGLVQAGGSLRLSCAASGIIFPYNAMGWYRQAPGKERELVAAITYRDGSTYYADSVKGRFTISRDNAKNTVYLQMNSLKPEDTAVYYCAADRYVYWDLYGYWGQGTQVTVSS,low polyreactivity
7,QVQLVESGGGLVQAGGSLRLSCAASGIIFPYYAMGWYRQAPGKERELVAAIDWSGTSTYYADSVKGRFTISRDNAKNTVYLQMNSLKPEDTAVYYCAADYPQAGLLYYYWGQGTQVTVSS,low polyreactivity
8,QVQLVESGGGLVQAGGSLRLSCAASGIIFPYYTMGWYRQAPGKERELVAAISTSGGSTYYADSVKGRFTISRDNAKNTVYLQMNSLKPEDTAVYFCAAELSYDYSHDYWGQGTQVTVSS,high polyreactivity
9,QVQLVESGGGLVQAGGSLRLSCAASGIIFQGNAMGWYRQAPGKERELVAAISSGGSTYYADSVKGRFTISRDNAKNTVYLQMNSLKPEDTAVYYCNAGAYVRYDYWGQGTQVTVSS,low polyreactivity
10,QVQLVESGGGLVQAGGSLRLSCAASGIIFQRNAMGWYRQAPGKERELVAAISASGGSTNYADSVKGRFTISRDNAKNTVYLQMNSLKPEDTAVYYCAVPARGTFLLRDGGRAEFDYWGQGTQVTVSS,low polyreactivity
11,QVQLVESGGGLVQAGGSLRLSCAASGIIFQRNAMGWYRQAPGQERELVAAISSGGRTYYADSVKGRFTISRDNAKNTVYLQMNSLKPEDTAVYYCNAASYSRGRARYDYWGQGTQVTVSS,high polyreactivity
12,QVQLVESGGGLVQAGGSLRLSCAASGIIFQYNAMGWYRQAPGKEREFVAAISYGGTSTYYADSVKGRFTISRDNAKNTVYLQMNSLKPEDTAVYYCAADYQGYTPSDGRYYWGQGTQVTVSS,low polyreactivity
13,QVQLVESGGGLVQAGGSLRLSCAASGIIFQYYAMGWYRQAPGKERELVAAISWSGGSTYYADSVKGRFTISRDNAKNTVYLQMNRLKPEDTAVYYCAARSRSYWPYEGDYWGQGTQVTVSS,low polyreactivity
14,QVQLVESGGGLVQAGGSLRLSCAASGIIFQYYAMGWYRQAPGKERELVAAISWSGGSTYYADSVKGRFTISRDNAKNTVYLQMNSLKPEDTAVYYCAARSRSYWPYEGDYWGQGTQVTVSS,low polyreactivity
15,QVQLVESGGGLVQAGGSLRLSCAASGIIFQYYVMGWYRQAPGKERELVAAIDKSGGSTYYADSVKGRFTISRDNAKNTVYLQMNSLKPEDTAVYYCAATSYAHKYYGYFGAIKYEYWGQGTQVTVSS,low polyreactivity
16,QVQLVESGGGLVQAGGSLRLSCAASGIIFQYYVMGWYRQAPGKERELVAAIDKSGGSTYYADSVKGRFTISRDNAKNTVYLQMNSLKPEDTAVYYCNRDRGWTRFYVYSTGAWLYDYWGQGTQVTVSS,low polyreactivity
17,QVQLVESGGGLVQAGGSLRLSCAASGIIFRAYAMGWYRQAPGKERELVAAITSRGGSTYYADSVKGRFTISLDNAKNTVYLQKNSLKPEDTAVYYCAADFTIPYWDANFDYWGQGTQVTVSS,low polyreactivity
18,QVQLVESGGGLVQAGGSLRLSCAASGIIFRDYAMGWYRQAPGKERELVAAINLDGTSTYYADSVKGRFTISRDNAKKTVYLQMNSLKPEDTAVYYCAAEYDNADYINYFLDMYYWGQGTQVTVSS,low polyreactivity
19,QVQLVESGGGLVQAGGSLRLSCAASGIIFRGYFMGWYRQATGKERELVAAISTSGGRTSYADSVKGRFTISRDNAKNTVYLQMNSLKPEDTAVYYCAARPLYSYSHWGYGYWGQGTQVTVSS,high polyreactivity
20,QVQLVESGGGLVQAGGSLRLSCAASGIIFRGYVMGWYRQAPGKERELVADISRGGSTYYADSVKGRFTISRDNAKNTVYLQMNSQKPEDTAVYYCAKDYYACYWEMDYWGQGTQVTVSS,low polyreactivity
21,QVQLVESGGGLVQAGGSLRLSCAASGIIFRLYAMGWYRQAPGTERELVAAISRRGDSTYYADSVKGRFTISRDNAKNTGYVQMNSLKPEDTAVYYCAAVYVPYYWLGRSRGLDYWGQGTQVSVSS,high polyreactivity
22,QVQLVESGGGLVQAGGSLRLSCAASGIIFRPYAMGWYRQAPGKERELVAAITGSGVSTYYADSVKGRFTISRDNAKNTVYLQMNSLKPEDTAVYYCAKRYNRGYHRYDYWGQGTHVTVSS,low polyreactivity

row,Sequence,polyreactivity (PSR sort gate)
1,QVQLVESGGGLVQAGGSLRLSCAASGIIFRQYAMGWSRQEPGKERELVAGITGTGSTYYADSVKGRFTISRDNAKNTVYLQLNSLKPEETAVYYCATRSFRVFYPYPYDYWGQGTQVTVSS,high polyreactivity
2,QVQLVESGGGLVQAGGSLRLSCAASGIIFRRYAMGWYRQGPGKERELVAAITHRGSTYYADSVKGRFTISRDNAKNTVYLQMNSLKPEDTAVYYCAADGFTRWGRYDYWGQGTQVTVSS,high polyreactivity
3,QVQLVESGGGLVQAGGSLRLSCAASGIIFRRYARGWYRQAPGKERELVAAITSGGDTNYADSVKGRFTISRDNAKNTVYLQMNSLKPEDTAVYYSNAGLRGVRRYGFDYWGQGTQVTVSS,high polyreactivity
4,QVQLVESGGGLVQAGGSLRLSCAASGIIFRTYAMGWYRQAPGKERELVAAISGTTGSKYYADSVKGRFTISRDNAKNTVYLQMNSLKPEDTAVYYCAADFYWYIRYDYWGQGTQVTVSS,low polyreactivity
5,QVQLVESGGGLVQAGGSLRLSCAASGIIFRVYAMGWYRQAPGKERELVAAITKGGGRTYYADSVKGRFTISRDIAKNTVYLQMNCLIPEDTAVYYCAARSSSRFEYWGQGTEVTVSS,high polyreactivity
6,QVQLVESGGGLVQAGGSLRLSCAASGIIFRWYTMGWFRQAPGKERELVAAITGRGGSTYYADSVKGRFTISRDNAKNTFYLQMNSLIPEDTAVYYCAAEGVRIGTRYDYWGQGTLVTVSS,high polyreactivity
7,QVQLVESGGGLVQAGGSLRLSCAASGIIFRWYTMGWYRQAPGKERELVAAISSGGSTYYADSVKGRFTISRDNAKNTVYLQMNSLKPEDTAVYYCAARYITTYAYGYWGQGTQVTVSS,high polyreactivity
8,QVQLVESGGGLVQAGGSLRLSCAASGIIFRWYTMGWYRQAPGKERELVAAISTSTGSTYYADSVKGRFTISRDNAKNTVYLQMNSLKPEDTAVYYCAADYAYWNYESYYWGQGTQVTVSS,high polyreactivity
9,QVQLVESGGGLVQAGGSLRLSCAASGIIFRYAMGWYRQAPGKERELVARITVGSTYYADSVKGRFTISRDNAKNTVYLQMNSLKPEDTAVYYCAARVQHYLATDDYWGQGTQVTVSS,low polyreactivity
10,QVQLVESGGGLVQAGGSLRLSCAASGIIFRYYAMGWYRQAPGKERELVAAISSSTGNTYYADSVKGRFTISRDNAKNTVYLQMNSLKPEDTAVYYCAARTRQISIVGYNYWGQGTQVTVSS,high polyreactivity
11,QVQLVESGGGLVQAGGSLRLSCAASGIIFRYYAMGWYRQPPGKERELVASISRGGSTYYADSVKGRFTISRDNAKNTVYLQMNSLKPEDTAVYYCAADVYPVYLYGYEYWGQGTQVTVSS,high polyreactivity
12,QVQLVESGGGLVQAGGSLRLSCAASGIIFRYYTMGWYRQAPGKEREFVAAITGSSGSTYADSVKGRFTISRDNAKNTVYLQMNSLKPEDTAVYYCNADSYSIWVYGEYDYWGQGTQVTVSS,high polyreactivity
13,QVQLVESGGGLVQAGGSLRLSCAASGIIFSAYAMGWYRQAPGKERELVAAISSGGSTNYADSVKGRFTISRDNAKNTVYLQMNSLKPEDTAVYYCNAGERDVPNSYVAYREDYWGQGTQVTVSS,low polyreactivity
14,QVQLVESGGGLVQAGGSLRLSCAASGIIFSDYAMGWYRQAPGKERELVAAITGGGSTYYADSVKGRFTISRDNAKKTVDLQMNSLKPEDTAVFYCNADWARLWIRSTEVDYWGQGSQVTVSS,low polyreactivity
15,QVQLVESGGGLVQAGGSLRLSCAASGIIFSGYAMGWYRQAPGKERELVASIRSGSNTYYADSVKGRFTISRDNAKNTVYLQMNSLKPEDTAVYYCAARVVPATFRFIRYPHPYYYWGQGTQVTVSS,low polyreactivity
16,QVQLVESGGGLVQAGGSLRLSCAASGIIFSHNVMGWYRQAPGKERELVAAITYSGGSTYYADSVKGRFTISRDNAKNTVYLLMNSLKPEDTAVYYCNALGVSRRDYDYWGQGTQVTVSS,low polyreactivity
17,QVQLVESGGGLVQAGGSLRLSCAASGIIFSNYAMGWYRQAPGKERDLVAAITRSGGRTYYADSVKGRFTISRDNAKNTVYLQMNSLKPEDTAVYYCAATGRSGVLSSYYYWGQGTQVTVSS,high polyreactivity
18,QVQLVESGGGLVQAGGSLRLSCAASGIIFSPYAMGLYRQAPGKERELVAAISYSGGSTYYADSVKGRFTISRDNAKNTVYLQMNSLKPEDTAVYYCAVVYSYYLAVLGYCDYDYWGQGTQVTVSS,low polyreactivity
19,QVQLVESGGGLVQAGGSLRLSCAASGIIFSPYAMGWYRQAPGNERELVAAISYSGGSTYYADSVKGRFTISRDNAKNTVYLQMNSLKPEDTAVYYCAVVYSYYLAVLGYWDYDYWGQGTQVTVSS,low polyreactivity
20,QVQLVESGGGLVQAGGSLRLSCAASGIIFSSNAMGWYRQAPGKERELVAAISRRGGSTYYADSVKGRFTISRDNAKNTVYLQMNSLKPEDTAVYYCNALLYNGAGYDYWGQGSQVTVSS,high polyreactivity
21,QVQLVESGGGLVQAGGSLRLSCAASGIIFSSNAMGWYTQAPGKERELVAAISRRGGSTYYADSVKGRFTISRDNAKNSVYLQMNSLKPEDTAVYYCNALLYNGAGYDYWGQGTQVTVSS,high polyreactivity
